Source: patent publication US20190135915A1 (SYNTIMMUNE, published 2019)
Several values for one entry are separate records, joined by “and”; a condition that tells them apart may be missing. Identical values can stand only once.

Tests used:
[1] = biological target: T1, recombinant human FcRn (Sino Biological Inc. Cat. No. CT009-H08H) (human, UniProt P55899 24-297; P61769 21-119); test: competition ELISA, pH 6.0; competitor biotinylated parent murine antibody; captured recombinant human FcRn; HEK-expressed IgG4
T1 construct: also called immobilized FcRn
Protocol: (§1) The IgG4 antibodies were tested for antigen binding in a competition ELISA at pH 6.0 and pH 7.4. A Nunc Immuno MaxiSorp 96 well flat bottom microtitre plate (Fisher, cat. no. DIS-971-030J) was pre-coated with 1 μg/ml of an FcRn antibody specific for an IgG-binding epitope distinct from the albumin-binding region overnight at pH 7.4. The following day, 1 μg/ml recombinant human FcRn (Sino Biological Inc. cat. no. CT009-H08H) diluted in PBS pH 7.4 was added to the wells and incubated for 1 hour at 37° C. After washing the plates 3× with PBST pH 7.4, the plates were blocked with PBSM pH 7.4 for 1 hour at 37° C. From this point onwards, all wash and incubation steps were performed at the chosen assay pH (pH 6.0 or 7.4). […] The reaction was stopped with 3 M HCl, absorbance read at 450 nm on a Dynex Technologies MRX TC II plate reader and the binding curves plotted.
(§2) NS0 produced humanized affinity matured IgGs were used in all assays other than G50_C10/Vκ3), which was purified from transiently expressing HEK cells.

[2] = biological target: T2, monomeric His-tagged hFcRn (human, UniProt P55899 24-297; P61769 21-119, limits assumed); test: SPR Biacore 3000, antibody amine-coupled to CM5, His-tagged hFcRn analyte, pH 7.4, 25 C, 1:1 Langmuir; pH 7.4
T2 construct: also called human FcRn; not shown: His tag
Protocol: (§3) The coupling was performed by injecting 2 μg/ml of each protein into 10 mM sodium acetate, pH 4.5 (GE Healthcare), using the amine coupling kit (GE Healthcare). HBS-P buffer pH 7.4 (0.01 M HEPES, 0.15 M NaCl, 0.005% surfactant P20) or phosphate buffer pH 6.0 (67 mM phosphate buffer, 0.15 M NaCl, 0.005% Tween 20) were used as running buffer and dilution buffer. […] All SPR experiments were conducted at 25° C. with a flow rate of 40 μl/min Binding data were zero-adjusted, and the reference cell value subtracted. The Langmuir 1:1 ligand binding model provided by the BIAevaluation software (version 4.1) was used to determine the binding kinetics. The closeness of the fit is described by the statistical value χ².
(§4) The kinetic rate constants were obtained using a simple first-order (1:1) Langmuir bimolecular interaction model. The kinetic values represent the average of duplicates. The χ² (chi-square) values represent the fit to the binding model used.

[3] = biological target: T1, recombinant human FcRn (Sino Biological …); test: competition ELISA, pH 7.4; competitor biotinylated parent murine antibody; captured recombinant human FcRn; HEK-expressed IgG4
Protocol: as §1, §2

[4] = biological target: T2, monomeric His-tagged hFcRn; test: SPR Biacore 3000, antibody amine-coupled to CM5, His-tagged hFcRn analyte, pH 6.0, 25 C, 1:1 Langmuir; pH 6.0
Protocol: as §3, §4

[5] = biological target: T3, FcRn (analyte in the Biacore T200 study) (human, UniProt P55899 24-297; P61769 21-119, limits assumed); test: SPR Biacore T200, antibody amine-coupled to CM5, FcRn analyte, 1:1 model; pH not stated
T3 construct: also called human FcRn
Protocol: (§5) Antibodies were immobilized onto a Series S CM5 sensor chip surface using standard amine coupling chemistry and analyte (FcRn) flowed over the surface. A 2-fold dilution range was selected from 50-0.01 nM FcRn. The association phase of FcRn analyte was monitored for 450 seconds, and dissociation was initially measured for either 250 or 2500 seconds, at 40 μl/min Fc1 was a reference channel and was subtracted from other flow cells to correct for non-specific binding. […] Kinetic values are based on a 1:1 binding model (Table 5).

[6] = biological target: T3, FcRn (analyte in the Biacore T200 study); test: SPR Biacore T200, antibody amine-coupled to CM5, FcRn analyte, 1:1 model; chip with the three best variants (repeat run, dissociation 4500 s per paragraph 156); pH not stated
Protocol: as §5

[7] = biological target: T1, recombinant human FcRn (Sino Biological …); test: competition ELISA, pH 7.4; competitor biotinylated parent murine antibody; captured recombinant human FcRn; HEK-expressed IgG4; remark: listed apart in the source
Protocol: as §1

[8] = biological target: T2, monomeric His-tagged hFcRn; test: SPR Biacore 3000, antibody amine-coupled to CM5, His-tagged hFcRn analyte, pH 7.4, 25 C, 1:1 Langmuir
Protocol: as §3, §4

[9] = biological target: T2, monomeric His-tagged hFcRn; test: SPR Biacore 3000, antibody amine-coupled to CM5, His-tagged hFcRn analyte, pH 6.0, 25 C, 1:1 Langmuir
Protocol: as §3

[10] = biological target: T1, recombinant human FcRn (Sino Biological …); test: competition ELISA, pH 6.0; competitor biotinylated parent murine antibody; captured recombinant human FcRn; HEK-expressed IgG4; remark: listed apart in the source
Protocol: as §1

[11] = biological target: T3, FcRn (analyte in the Biacore T200 study); test: SPR Biacore T200, antibody immobilized, FcRn analyte
Protocol: as §5

[12] = biological target: T1, recombinant human FcRn (Sino Biological …); test: competition ELISA, pH 6.0: test IgG4 (from transient HEK per paragraph 152) titrated against fixed biotinylated murine parent antibody on recombinant human FcRn; streptavidin-HRP/TMB, OD450 [top panel]
Protocol: as §1, §2

[13] = biological target: T1, recombinant human FcRn (Sino Biological …); test: competition ELISA, pH 7.4: test IgG4 (from transient HEK per paragraph 152) titrated against fixed biotinylated murine parent antibody on recombinant human FcRn; streptavidin-HRP/TMB, OD450 [top panel]
Protocol: as §1, §2

- Average relative IC50 (relative to humanized parent) [1]: 0.89
- koff [2]: 8e-08 s⁻¹
- Average relative IC50 (relative to humanized parent) [3]: 0.54
- kon [4]: 110000 M⁻¹ s⁻¹
- koff [5]: ≤ 1e-05 s⁻¹ and 2.34e-05 s⁻¹
- kon [5]: 399000 M⁻¹ s⁻¹ and 298000 M⁻¹ s⁻¹
- Kd [6]: 0.054 nM
- koff [6]: 1.54e-05 s⁻¹
- kon [6]: 283000 M⁻¹ s⁻¹
- Average relative IC50 (relative to humanized parent) [7]: 0.7
- Kd [8]: 0.00066 nM
- kon [8]: 120000 M⁻¹ s⁻¹
- Kd [9]: 0.4 nM
- koff [9]: 4.7e-05 s⁻¹
- Average relative IC50 (relative to humanized parent) [10]: 0.9
- fold improvement in affinity compared to the humanized parental, on average [11]: 50 fold
- IC50 (read off the curve) [12]: ~0.5 µg/mL
- IC50 (read off the curve) [13]: ~0.4 µg/mL
B1: G50_C10/Vκ3 (antibody, V domains shown)
VH: EVQLVESGGGLVKPGGSLKLSCAASGFTFSDYGMHWVRQAPGKGLEWVAYISSGSSTIYYADTVKGRFTISRDNAKNTLYLQMNSLRAEDTAMYYCARLESTTAVGDYWGQGTSVTVSS
VL: DIVMTQSPDSLSASVGDRVTITCKASQSVSNDVAWYQQKPGQPPKLLIYYASNRYTGVPDRFSGSGYGTDFTLTISSLQAEDVAVYFCQQDYSSLTFGQGTKLEIK
notes: Bivalent IgG4 with S241P, human kappa; also called SYNT002-16; G50_C10/Vκ3 (HEK)
